Key:
[1] = molecular target: UBE2L3 (Homo sapiens) (UniProt P68036); assay: SPR; conditions: cited from earlier work
[2] = molecular target: MuRF1 in fusion with the binding domain of GAL4 (pBridge, MCS I) (rat) (UniProt Q91Z63); assay: two-hybrid; yeast three-hybrid; pBridge::MuRF1/MHCIIa (MuRF1 GAL4 binding-domain fusion with MHCIIa residues 1–255 co-expressed from MCSII), preys in pGADT7; growth on -LTH + Aureobasidin A + 3-AT followed over 21 days
[3] = molecular target: MuRF1 in fusion with the binding domain of GAL4 (pBridge, MCS I) (rat) (UniProt Q91Z63); assay: two-hybrid; Matchmaker Gold yeast two-hybrid; MuRF1 alone as GAL4 binding-domain fusion, preys in pGADT7; growth of diploid clones on -LTH + Aureobasidin A + 3-AT followed over 21 days

Row | percentage of clones grown on selective media [2] [%] | percentage of clones grown on selective media [3] [%] | Substance | Kd [1] [nM]
1 |  |  | MuRF1 (from UniProt Q969Q1) | 50
2 | 80 | 80 | UBE2E1 in pGADT7 (GAL4 activation domain fusion) (from UniProt P52482 1-193) (enzyme) | 

— paper PMC8392593
